Measured values taken from patent US20230303690A1 (published 2023).

What was measured:
[1] = target: human LAG3 expressed on cells (human) (UniProt P18627); experiment: cell ELISA, 293T-LAG3 cells
[2] = target: T1, LAG3 Protein, Human, Recombinant (His Tag) (Sino Biological Catalog No. 16498-H08H) (human, UniProt P18627 23-450); experiment: ELISA, coated hLAG3-His
T1 construct: Bought protein; also called hLAG3-His; LAG3-His; not shown: His tag
T1 sequence (looked up): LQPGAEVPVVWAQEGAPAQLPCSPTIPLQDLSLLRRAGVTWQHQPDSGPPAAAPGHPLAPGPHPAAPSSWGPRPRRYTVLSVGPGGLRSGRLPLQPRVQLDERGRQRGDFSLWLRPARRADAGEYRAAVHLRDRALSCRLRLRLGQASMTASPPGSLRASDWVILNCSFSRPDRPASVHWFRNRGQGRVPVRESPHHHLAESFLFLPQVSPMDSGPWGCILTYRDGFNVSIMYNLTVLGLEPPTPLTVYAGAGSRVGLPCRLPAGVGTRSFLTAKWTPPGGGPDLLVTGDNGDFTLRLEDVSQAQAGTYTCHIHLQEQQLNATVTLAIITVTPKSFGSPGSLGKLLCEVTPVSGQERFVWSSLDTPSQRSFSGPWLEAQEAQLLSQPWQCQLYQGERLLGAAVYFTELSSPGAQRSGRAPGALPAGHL
Protocol: Plates were coated with 100 µL per well of Coating Solution, and then covered, and incubated overnight (12-18 hours) at 2-8° C. The wells were aspirated and washed 1 time with >200 µL of Wash buffer per well, inverted and tapped on absorbent paper to remove excess liquid. The plates were blocked with 200 µL per well with Blocking buffer (1×PBS+4% milk) for 1 hour at room temperature, aspirated, inverted, and tapped on absorbent paper to remove excess liquid. Standards and sample dilutions were prepared in Blocking buffer. 100 µL of standards (in duplicate) and samples were pipetted into designated wells. After incubation for 1 hour at room temperature with gentle continual shaking (~500 rpm), the wells were aspirate and washed 3 times with >200 µL of Wash buffer per well, inverted and tapped on absorbent paper to remove excess liquid.
The primary antibody solution was diluted with Blocking buffer. See Table 14 for recommended primary antibody dilution. 100 µL of the primary antibody solution was added into each well and incubated for 2 hours at room temperature with gentle continual shaking (~500 rpm). The wells were aspirated and washed 3 times with >200 µL of Wash buffer per well, inverted and tapped on absorbent paper to remove excess liquid. The working solution of secondary antibody was made with Blocking buffer by diluting the secondary antibody by 2,500 times. 100 µL of secondary antibody working solution was added into each well and incubated for 30 minutes at room temperature. The wells were aspirated and washed 5 times with >200 µL of Wash buffer per well, inverted and tapped on absorbent paper to remove excess liquid. 100 µL of TMB substrate solution (Biopanda, TMB-S-004) was added to each well and incubated for 30 minutes at room temperature. 100 µL of Stop solution (Solarbio, C1058) was added to each well. Absorbance at 450 nm was measured within 30 minutes of adding Stop solution. Results were calculated using a log-log or 4-parameter curve fit.

[3] = target: T1, LAG3 Protein, Human, Recombinant (His …); experiment: SPR binning on LAG3-His; competitor 18
Protocol: (§1) The chip surface was regenerated after each cycle with 25 mM NaOH followed by HBS-EP wash provided in the kit.

[4] = target: T1, LAG3 Protein, Human, Recombinant (His …); experiment: SPR binning on LAG3-His; competitor 20
Protocol: as §1

[5] = target: T2, human LAG3 expressed on cells (human, UniProt P18627 23-525); experiment: cell-based or functional assay
T2 sequence (looked up): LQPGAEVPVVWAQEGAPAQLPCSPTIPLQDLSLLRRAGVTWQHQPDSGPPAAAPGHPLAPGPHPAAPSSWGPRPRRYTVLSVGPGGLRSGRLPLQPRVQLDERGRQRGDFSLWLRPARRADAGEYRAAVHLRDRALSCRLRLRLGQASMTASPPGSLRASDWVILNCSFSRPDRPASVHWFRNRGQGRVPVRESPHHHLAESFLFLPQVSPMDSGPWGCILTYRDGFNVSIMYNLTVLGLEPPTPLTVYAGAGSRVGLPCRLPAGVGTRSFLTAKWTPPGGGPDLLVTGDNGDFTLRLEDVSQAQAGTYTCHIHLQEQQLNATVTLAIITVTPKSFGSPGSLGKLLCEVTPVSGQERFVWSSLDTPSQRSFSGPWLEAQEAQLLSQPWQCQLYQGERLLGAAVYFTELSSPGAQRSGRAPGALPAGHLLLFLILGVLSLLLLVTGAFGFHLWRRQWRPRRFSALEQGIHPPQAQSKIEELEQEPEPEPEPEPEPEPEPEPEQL

[6] = target: T2, human LAG3 expressed on cells; experiment: cell-based or functional assay; remark: listed apart in the source
[7] = target: T1, LAG3 Protein, Human, Recombinant (His …); experiment: SPR (Biacore), sdAb captured by anti-human Fc, LAG3-His analyte
Protocol: The binding of the single domain antibodies to recombinant human LAG3 protein (rhLAG3) was examined by Biacore™ assay. […] The coating was carried out according to the manufacturer’s instructions accompanying the kit (Catalog No. BR-1008-39, GE). […] The chip surface was regenerated after each cycle with 25 mM NaOH followed by HBS-EP wash provided in the kit.

[8] = target: T1, LAG3 Protein, Human, Recombinant (His …); experiment: SPR binning on LAG3-His; competitor BMS
Protocol: as §1

[9] = target: T1, LAG3 Protein, Human, Recombinant (His …); experiment: SPR binning on LAG3-His; competitor 25
Protocol: as §1

[10] = target: T1, LAG3 Protein, Human, Recombinant (His …); experiment: SPR binning on LAG3-His; competitor 21
Protocol: as §1

[11] = target: T1, LAG3 Protein, Human, Recombinant (His …); experiment: SPR binning on LAG3-His; competitor 24
Protocol: as §1

[12] = target: T1, LAG3 Protein, Human, Recombinant (His …); experiment: SPR binning on LAG3-His; competitor 37
Protocol: as §1

[13] = target: T1, LAG3 Protein, Human, Recombinant (His …); experiment: SPR binning on LAG3-His; competitor 73
Protocol: as §1

[14] = target: T1, LAG3 Protein, Human, Recombinant (His …); experiment: SPR binning on LAG3-His; competitor 1
Protocol: as §1

[15] = target: T1, LAG3 Protein, Human, Recombinant (His …); experiment: SPR binning on LAG3-His; competitor 17
Protocol: as §1

[16] = target: T1, LAG3 Protein, Human, Recombinant (His …); experiment: SPR binning on LAG3-His; competitor 27
Protocol: as §1

B1: sdAb No. 25-B6 (VHH)
VHH: QLQLVESGGGLVKPGGSLRLSCAASGSIESFSFMGWYRQAPGKQREWVAGFTGAASLSFSTYTDAVKGRFTISRDNAKNSVYLQMNSLRAEDTAVYYCNVDPWSQSWPGRYWGQGTTVTVSS
notes: Humanized sdAb No. 25; not shown: Fc part implied by anti-human IgG1 Fc detection
OD450 at 0.122 nM [1]: 0.056
OD450 at 0.366 nM [1]: 0.07
OD450 at 1.097 nM [1]: 0.095
OD450 at 3.292 nM [1]: 0.166
OD450 at 9.877 nM [1]: 0.306
OD450 at 29.63 nM [1]: 0.399
OD450 at 88.89 nM [1]: 0.888
OD450 at 266.67 nM [1]: 1.47
OD450 at 0.061 nM [2]: 0.037
OD450 at 0.1829 nM [2]: 0.039
OD450 at 0.5487 nM [2]: 0.037
OD450 at 1.6461 nM [2]: 0.044
OD450 at 4.9383 nM [2]: 0.053
OD450 at 14.815 nM [2]: 0.069
OD450 at 44.445 nM [2]: 0.085
OD450 at 133.335 nM [2]: 0.128

B2: sdAb No. 73 (VHH)
VHH: QVQLVESGGGLVQPGGSLKLSCTASGFTLDYYAIAWFRQAPGKEREAVSCISSSDGSTRYADSVKGRFTISRDNAKNTVYLQMNSLKPEDTAVYYCAADPYGDCRGPYDYWGQGTQVTVSS
notes: Fc not described; also called sdAb 73; not shown: Fc part implied by anti-human Fc capture
RU [3]: -10.6 RU
RU [4]: -117 RU
EC50 for IL-2 rescue, hLAG3 Jurkat T system [5]: 42.6 nM
Efficacy (IL-2 production, BMS = 100%) [5]: 56.4%
IL-2, % of BMS, at 0.005080526 ug/mL [6]: 0.495%
IL-2, % of BMS, at 0.015241579 ug/mL [6]: 3.55%
IL-2, % of BMS, at 0.045724737 ug/mL [6]: 3.63%
IL-2, % of BMS, at 0.137174211 ug/mL [6]: 6.64%
IL-2, % of BMS, at 0.411522634 ug/mL [6]: 15.5%
IL-2, % of BMS, at 1.234567901 ug/mL [6]: 19.5%
IL-2, % of BMS, at 3.703703704 ug/mL [6]: 24.5%
IL-2, % of BMS, at 11.11111111 ug/mL [6]: 30.6%
IL-2, % of BMS, at 33.33333333 ug/mL [6]: 36.8%
IL-2, % of BMS, at 100 ug/mL [6]: 41%
Kd [7]: 0.182 nM
koff [7]: 0.000975 s⁻¹
kon [7]: 5.35e+06 M⁻¹ s⁻¹
RU [8]: 27 RU
RU [9]: 9.8 RU
RU [10]: -10.2 RU
RU [11]: -9.6 RU
RU [12]: -6.9 RU
RU [13]: -9.7 RU
RU [14]: -7.3 RU
RU [15]: -12.5 RU
RU [16]: -2.2 RU

B3: sdAb No. 1 (VHH)
VHH: QLQLVESGGGLVQAGGSLRLSCAASGFTFDDYAIGWFRQAPGKEREGVSCIRSSDGSTYYADSVKGRFTISSDNAKNTVYLQMNSLKPEDTAVYYCAKDNYSDCRGPYHYWGQGTQVTVSS
notes: the tested form was captured by anti-human Fc, its Fc is not described; also called sdAb 1; not shown: Fc part implied by anti-human Fc capture
RU [3]: -10.7 RU
RU [4]: -14.8 RU
EC50 for IL-2 rescue, hLAG3 Jurkat T system [5]: 15.7 nM
Efficacy (IL-2 production, BMS = 100%) [5]: 41.4%
IL-2, % of BMS, at 0.005080526 ug/mL [6]: 8.4%
IL-2, % of BMS, at 0.015241579 ug/mL [6]: 8.77%
IL-2, % of BMS, at 0.045724737 ug/mL [6]: 6.07%
IL-2, % of BMS, at 0.137174211 ug/mL [6]: 14.2%
IL-2, % of BMS, at 0.411522634 ug/mL [6]: 14.8%
IL-2, % of BMS, at 1.234567901 ug/mL [6]: 30.7%
IL-2, % of BMS, at 3.703703704 ug/mL [6]: 46.4%
IL-2, % of BMS, at 11.11111111 ug/mL [6]: 45.7%
IL-2, % of BMS, at 33.33333333 ug/mL [6]: 54.4%
IL-2, % of BMS, at 100 ug/mL [6]: 51.3%
koff [7]: 5.05e-08 s⁻¹
kon [7]: 4.77e+06 M⁻¹ s⁻¹
RU [8]: 37.4 RU
RU [9]: 30 RU
RU [10]: -114 RU
RU [11]: -10.6 RU
RU [12]: -8.4 RU
RU [13]: -11.6 RU
RU [14]: 22 RU
RU [15]: -6.9 RU
RU [16]: 4.9 RU

B4: sdAb No. 20 (VHH)
VHH: QVQLVESGGGLVQPGGSLRLSCAASGLTLDGYAVGWFRQAPGKDREGLSCISGSDGSTHYLDSVKGRFTISRDNAKSTMALQMNSLQFGDTAIYYCAARRGSCSGSWTYWGQGTQVTVSS
notes: Fc of the tested form not described; also called sdAb 20; not shown: Fc part implied by anti-human Fc capture
RU [3]: -12 RU
RU [4]: -24.2 RU
EC50 for IL-2 rescue, hLAG3 Jurkat T system [5]: 14.2 nM
Efficacy (IL-2 production, BMS = 100%) [5]: 26.9%
IL-2, % of BMS, at 0.005080526 ug/mL [6]: 8.49%
IL-2, % of BMS, at 0.015241579 ug/mL [6]: 9.36%
IL-2, % of BMS, at 0.045724737 ug/mL [6]: 3.55%
IL-2, % of BMS, at 0.137174211 ug/mL [6]: 6.06%
IL-2, % of BMS, at 0.411522634 ug/mL [6]: 14.7%
IL-2, % of BMS, at 1.234567901 ug/mL [6]: 20.3%
IL-2, % of BMS, at 3.703703704 ug/mL [6]: 38%
IL-2, % of BMS, at 11.11111111 ug/mL [6]: 33%
IL-2, % of BMS, at 33.33333333 ug/mL [6]: 34.5%
IL-2, % of BMS, at 100 ug/mL [6]: 35.1%
Kd [7]: 0.252 nM
koff [7]: 0.000429 s⁻¹
kon [7]: 1.71e+06 M⁻¹ s⁻¹
RU [8]: 23.3 RU
RU [9]: 205 RU
RU [10]: -20.1 RU
RU [11]: -209 RU
RU [12]: -19.3 RU
RU [13]: -21.8 RU
RU [14]: -9.9 RU
RU [15]: -7.8 RU
RU [16]: -16.6 RU
